Laboratory results taken from the Human Domainome abundance scans (Beltran et al. 2025).
± gives the uncertainty stated by the source.

B1: Retinoic acid receptor RXR-alpha, residues 132 to 208; numbered along this chain, P19793 (parent)
chain: KHICAICGDRSSGKHYGVYSCEGCKGFFKRTVRKDLTYTCRDNKDCLIDKRQRNRCQYCRYQKCLAMGMKREAVQEE

Variants of: B1
Test: abundance fitness (aPCA) (normalised: wild type 0, dead -1); higher = more abundant; growth selection in yeast, the domain comes from the species named
Conditions: Homo sapiens

| Variant | abundance fitness |
| --- | --- |
| C46G | -0.186 ± 0.029 |
| C46M | -0.206 ± 0.046 |
| C46D | -0.035 ± 0.069 |
| C46F | -0.291 ± 0.087 |
| C46N | -0.22 ± 0.077 |
| I6G | -0.386 ± 0.068 |
| I6R | -0.687 ± 0.065 |
| I6A | -0.145 ± 0.038 |
| I6L | -0.124 ± 0.03 |
| I6T | -0.064 ± 0.033 |
| I6S | -0.438 ± 0.036 |
| I6M | -0.038 ± 0.039 |
| A66K | 0.045 ± 0.047 |
| A66I | -0.032 ± 0.035 |
| A66V | 0.029 ± 0.033 |
| A66C | -0.099 ± 0.036 |
| A66T | 0.002 ± 0.034 |
| E76R | -0.037 ± 0.036 |
| E76G | 0.05 ± 0.038 |
| E76Y | -0.011 ± 0.035 |
| E76H | -0.012 ± 0.036 |
| C59D | -0.647 ± 0.16 |
| C59N | -1.13 ± 0.46 |
| C59R | -0.955 ± 0.11 |

| Variant | abundance fitness |
| --- | --- |
| C59T | -0.651 ± 0.097 |
| C59I | -0.977 ± 0.29 |
| R71F | 0.01 ± 0.032 |
| R71Q | 0.001 ± 0.034 |
| R71V | 0.021 ± 0.028 |
| R71M | -0.01 ± 0.032 |
| Y38V | 0.001 ± 0.031 |
| Y38P | 0.04 ± 0.05 |
| Y38E | -0.063 ± 0.04 |
| Y38C | -0.353 ± 0.061 |
| G13H | 0.025 ± 0.081 |
| G13L | -0.082 ± 0.041 |
| G13E | 0.059 ± 0.044 |
| G13D | 0.019 ± 0.048 |
| G13Y | 0.017 ± 0.079 |
| L65Q | 0.021 ± 0.053 |
| L65H | -0.078 ± 0.071 |
| L65N | 0.11 ± 0.092 |
| L65W | -0.108 ± 0.042 |
| L65M | -0.058 ± 0.041 |
| E77Y | 0.023 ± 0.044 |
| E77V | -0.002 ± 0.041 |
| E77K | 0.008 ± 0.077 |
| E77M | -0.034 ± 0.057 |

| Variant | abundance fitness |
| --- | --- |
| V18R | -0.227 ± 0.037 |
| V18M | -0.147 ± 0.083 |
| V18C | -0.078 ± 0.039 |
| V18I | -0.142 ± 0.061 |
| Q75I | -0.014 ± 0.033 |
| Q75H | -0.049 ± 0.032 |
| Q75C | 0.026 ± 0.041 |
| Q75T | -0.011 ± 0.028 |
| Q75G | -0.006 ± 0.04 |
| T31S | -0.02 ± 0.026 |
| T31H | -0.132 ± 0.037 |
| T31A | -0.03 ± 0.026 |
| T31V | -0.003 ± 0.027 |
| T31K | -0.233 ± 0.044 |
| T31C | -0.005 ± 0.032 |
| T31W | -0.043 ± 0.034 |
| E72P | -0.12 ± 0.089 |
| E72L | -0.046 ± 0.092 |
| E72T | -0.026 ± 0.071 |
| E72D | 0.047 ± 0.32 |
| E72G | -0.096 ± 0.14 |
| E72F | -0.19 ± 0.17 |
| C21N | -0.803 ± 0.069 |
| C21P | -0.9 ± 0.072 |

| Variant | abundance fitness |
| --- | --- |
| C21T | -1.05 ± 0.092 |
| C21M | -0.827 ± 0.067 |
| C21Y | -0.676 ± 0.066 |
| C21Q | -1.02 ± 0.11 |
| C7L | -1.23 ± 0.12 |
| C7A | -0.919 ± 0.11 |
| C7M | -0.867 ± 0.14 |
| C7I | -1.24 ± 0.16 |
| C7F | -1.19 ± 0.14 |
| C7P | -0.961 ± 0.093 |
| C7H | -0.942 ± 0.1 |
| H2M | 0.078 ± 0.054 |
| H2C | -0.267 ± 0.071 |
| H2V | -0.142 ± 0.042 |
| Y61C | -0.06 ± 0.28 |
| R41Y | -0.002 ± 0.032 |
| R41Q | 0.041 ± 0.043 |
| R41N | -0.05 ± 0.032 |
| R41I | 0.041 ± 0.033 |
| R41F | 0.032 ± 0.031 |
| R10F | -0.064 ± 0.031 |
| R10C | -0.053 ± 0.035 |
| R10H | -0.051 ± 0.03 |
| R10W | -0.044 ± 0.035 |

| Variant | abundance fitness |
| --- | --- |
| R10K | -0.025 ± 0.033 |
| G23L | -0.407 ± 0.028 |
| G23I | -0.407 ± 0.04 |
| G23R | -0.037 ± 0.023 |
| G23N | -0.269 ± 0.039 |
| G23E | -0.039 ± 0.031 |
| D49V | 0.036 ± 0.044 |
| D49S | -0.037 ± 0.053 |
| L47W | 0.005 ± 0.035 |
| L47E | 0.004 ± 0.041 |
| L47P | -0.045 ± 0.054 |
| L47M | -0.048 ± 0.044 |
| A5P | -0.074 ± 0.052 |
| A5R | 0.044 ± 0.032 |
| A5L | 0.037 ± 0.037 |
| A5Q | 0.036 ± 0.046 |
| A5S | 0.02 ± 0.036 |
| A5T | 0.045 ± 0.049 |
| K1S | -0.299 ± 0.042 |
| K1D | -0.02 ± 0.05 |
| K1L | -0.333 ± 0.05 |
| S11N | -0.084 ± 0.029 |
| S11L | -0.142 ± 0.024 |
| S11A | -0.054 ± 0.029 |

| Variant | abundance fitness |
| --- | --- |
| S11G | -0.116 ± 0.026 |
| S11C | -0.015 ± 0.032 |
| S11P | 0.072 ± 0.03 |
| D35N | -0.164 ± 0.12 |
| K70R | -0.012 ± 0.029 |
| K70S | 0.002 ± 0.035 |
| K70A | -0.014 ± 0.036 |
| K70W | -0.005 ± 0.038 |
| K70Y | 0.037 ± 0.061 |
| H15Y | -0.05 ± 0.037 |
| H15I | -0.181 ± 0.038 |
| H15S | -0.196 ± 0.026 |
| H15L | -0.138 ± 0.027 |
| H15C | -0.081 ± 0.041 |
| H15R | -0.039 ± 0.023 |
| H15E | -0.065 ± 0.031 |
| Q57E | -0.045 ± 0.042 |
| Q57G | 0.03 ± 0.03 |
| Q57W | -0.026 ± 0.036 |
| N54H | 0.117 ± 0.12 |
| G17M | 0.025 ± 0.044 |
| G17K | -0.085 ± 0.046 |
| G17C | -0.002 ± 0.059 |
| G17L | -0.107 ± 0.035 |

| Variant | abundance fitness |
| --- | --- |
| G17Q | -0.089 ± 0.041 |
| G17R | -0.095 ± 0.027 |
| C4W | -1.3 ± 0.19 |
| C4M | -1.08 ± 0.16 |
| C4H | -0.512 ± 0.073 |
| C4Q | -0.614 ± 0.088 |
| C4V | -1.03 ± 0.086 |
| C4R | -1.02 ± 0.066 |
| V74C | 0.017 ± 0.044 |
| V74E | -0.018 ± 0.055 |
| V74P | -0.002 ± 0.036 |
| V74Y | -0.039 ± 0.031 |
| V74S | -0.059 ± 0.029 |
| M69F | 0.051 ± 0.031 |
| M69A | -0.069 ± 0.034 |
| M69G | -0.159 ± 0.042 |
| M69R | -0.875 ± 0.079 |
| K29H | -0.074 ± 0.071 |
| K29V | 0.054 ± 0.033 |
| K29S | -0.059 ± 0.039 |
| K29C | -0.223 ± 0.059 |
| K29D | -0.013 ± 0.053 |
| Y58H | 0.09 ± 0.073 |
